Data on 27 molecules can be found in paper PMC10786891, “Massively parallel profiling of RNA-targeting CRISPR-Cas13d”.

First the molecules themselves.
B1: target 1 insU 3' of 21,insA 3' of 21 (mixed)
RNA 1: CACCCGUGCAAAAAUGCAGGGGUCUAAAACUGAGCGGAUAACCUCUCUAUGG
RNA 2: GGGAAUGGAUCCACAUCUACGAAUUCGUACCUAAUAGAGAGGUUAUCCGCUCACCGAGAUCGGAAGAGCACACGU
B2: target 1 C6U,C7G (mixed)
RNA 1: CACCCGUGCAAAAAUGCAGGGGUCUAAAACUGAGCGGAUAACCUCUCUAUGG
RNA 2: GGGAAUGGAUCCACAUCUACGAAUUCGUACCAUAGAGAGGUUAUGUGCUCACCGAGAUCGGAAGAGCACACGU
B3: target 1 G12A,G13A (mixed)
RNA 1: CACCCGUGCAAAAAUGCAGGGGUCUAAAACUGAGCGGAUAACCUCUCUAUGG
RNA 2: GGGAAUGGAUCCACAUCUACGAAUUCGUACCAUAGAGAAAUUAUCCGCUCACCGAGAUCGGAAGAGCACACGU
B4: target 1 insG 3' of 20,insA 3' of 19 (mixed)
RNA 1: CACCCGUGCAAAAAUGCAGGGGUCUAAAACUGAGCGGAUAACCUCUCUAUGG
RNA 2: GGGAAUGGAUCCACAUCUACGAAUUCGUACCAGUAAGAGAGGUUAUCCGCUCACCGAGAUCGGAAGAGCACACGU
B5: target 1 complement block 2-14 (mixed)
RNA 1: CACCCGUGCAAAAAUGCAGGGGUCUAAAACUGAGCGGAUAACCUCUCUAUGG
RNA 2: GGGAAUGGAUCCACAUCUACGAAUUCGUACCAUAGAGUCCAAUAGGCGAGACCGAGAUCGGAAGAGCACACGU
B6: target 1 insA 3' of 11,insU 3' of 5 (mixed)
RNA 1: CACCCGUGCAAAAAUGCAGGGGUCUAAAACUGAGCGGAUAACCUCUCUAUGG
RNA 2: GGGAAUGGAUCCACAUCUACGAAUUCGUACCAUAGAGAGGUAUAUCCGUCUCACCGAGAUCGGAAGAGCACACGU
B7: target 1 C4A,A18C (mixed)
RNA 1: CACCCGUGCAAAAAUGCAGGGGUCUAAAACUGAGCGGAUAACCUCUCUAUGG
RNA 2: GGGAAUGGAUCCACAUCUACGAAUUCGUACCAUCGAGAGGUUAUCCGAUCACCGAGAUCGGAAGAGCACACGU
B8: target 1 insU 3' of 18,insU 3' of 7 (mixed)
RNA 1: CACCCGUGCAAAAAUGCAGGGGUCUAAAACUGAGCGGAUAACCUCUCUAUGG
RNA 2: GGGAAUGGAUCCACAUCUACGAAUUCGUACCAUAUGAGAGGUUAUCUCGCUCACCGAGAUCGGAAGAGCACACGU
B9: target 1 insA 3' of 22,insG 3' of 16 (mixed)
RNA 1: CACCCGUGCAAAAAUGCAGGGGUCUAAAACUGAGCGGAUAACCUCUCUAUGG
RNA 2: GGGAAUGGAUCCACAUCUACGAAUUCGUACACAUAGAGGAGGUUAUCCGCUCACCGAGAUCGGAAGAGCACACGU
B10: target 1 insC 3' of 19,insA 3' of 11 (mixed)
RNA 1: CACCCGUGCAAAAAUGCAGGGGUCUAAAACUGAGCGGAUAACCUCUCUAUGG
RNA 2: GGGAAUGGAUCCACAUCUACGAAUUCGUACCAUCAGAGAGGUAUAUCCGCUCACCGAGAUCGGAAGAGCACACGU
B11: target 1 insA 3' of 19 (mixed)
RNA 1: CACCCGUGCAAAAAUGCAGGGGUCUAAAACUGAGCGGAUAACCUCUCUAUGG
RNA 2: GGGAAUGGAUCCACAUCUACGAAUUCGUACCAUAAGAGAGGUUAUCCGCUCACCGAGAUCGGAAGAGCACACGU
B12: target 1 insU 3' of 20,insG 3' of 18 (mixed)
RNA 1: CACCCGUGCAAAAAUGCAGGGGUCUAAAACUGAGCGGAUAACCUCUCUAUGG
RNA 2: GGGAAUGGAUCCACAUCUACGAAUUCGUACCAUUAGGAGAGGUUAUCCGCUCACCGAGAUCGGAAGAGCACACGU
B13: target 1 C4U,U11C (mixed)
RNA 1: CACCCGUGCAAAAAUGCAGGGGUCUAAAACUGAGCGGAUAACCUCUCUAUGG
RNA 2: GGGAAUGGAUCCACAUCUACGAAUUCGUACCAUAGAGAGGCUAUCCGUUCACCGAGAUCGGAAGAGCACACGU
B14: target 1 insG 3' of 19,insA 3' of 5 (mixed)
RNA 1: CACCCGUGCAAAAAUGCAGGGGUCUAAAACUGAGCGGAUAACCUCUCUAUGG
RNA 2: GGGAAUGGAUCCACAUCUACGAAUUCGUACCAUGAGAGAGGUUAUCCGACUCACCGAGAUCGGAAGAGCACACGU
B15: target 1 G15C,C21U (mixed)
RNA 1: CACCCGUGCAAAAAUGCAGGGGUCUAAAACUGAGCGGAUAACCUCUCUAUGG
RNA 2: GGGAAUGGAUCCACAUCUACGAAUUCGUACUAUAGACAGGUUAUCCGCUCACCGAGAUCGGAAGAGCACACGU
B16: target 1 insU 3' of 13,insU 3' of 6 (mixed)
RNA 1: CACCCGUGCAAAAAUGCAGGGGUCUAAAACUGAGCGGAUAACCUCUCUAUGG
RNA 2: GGGAAUGGAUCCACAUCUACGAAUUCGUACCAUAGAGAGUGUUAUCCUGCUCACCGAGAUCGGAAGAGCACACGU
B17: target 1 insG 3' of 18,insA 3' of 15 (mixed)
RNA 1: CACCCGUGCAAAAAUGCAGGGGUCUAAAACUGAGCGGAUAACCUCUCUAUGG
RNA 2: GGGAAUGGAUCCACAUCUACGAAUUCGUACCAUAGGAGAAGGUUAUCCGCUCACCGAGAUCGGAAGAGCACACGU
B18: target 1 C2G,A16G (mixed)
RNA 1: CACCCGUGCAAAAAUGCAGGGGUCUAAAACUGAGCGGAUAACCUCUCUAUGG
RNA 2: GGGAAUGGAUCCACAUCUACGAAUUCGUACCAUAGGGAGGUUAUCCGCUGACCGAGAUCGGAAGAGCACACGU
B19: target 1 A1C,C6A (mixed)
RNA 1: CACCCGUGCAAAAAUGCAGGGGUCUAAAACUGAGCGGAUAACCUCUCUAUGG
RNA 2: GGGAAUGGAUCCACAUCUACGAAUUCGUACCAUAGAGAGGUUAUCAGCUCCCCGAGAUCGGAAGAGCACACGU
B20: target 1 C7A,G15A (mixed)
RNA 1: CACCCGUGCAAAAAUGCAGGGGUCUAAAACUGAGCGGAUAACCUCUCUAUGG
RNA 2: GGGAAUGGAUCCACAUCUACGAAUUCGUACCAUAGAAAGGUUAUACGCUCACCGAGAUCGGAAGAGCACACGU
B21: target 1 insG 3' of 10 (mixed)
RNA 1: CACCCGUGCAAAAAUGCAGGGGUCUAAAACUGAGCGGAUAACCUCUCUAUGG
RNA 2: GGGAAUGGAUCCACAUCUACGAAUUCGUACCAUAGAGAGGUUGAUCCGCUCACCGAGAUCGGAAGAGCACACGU
B22: target 1 insU 3' of 15,insA 3' of 4 (mixed)
RNA 1: CACCCGUGCAAAAAUGCAGGGGUCUAAAACUGAGCGGAUAACCUCUCUAUGG
RNA 2: GGGAAUGGAUCCACAUCUACGAAUUCGUACCAUAGAGUAGGUUAUCCGCAUCACCGAGAUCGGAAGAGCACACGU
B23: target 1 insG 3' of 20,insA 3' of 8 (mixed)
RNA 1: CACCCGUGCAAAAAUGCAGGGGUCUAAAACUGAGCGGAUAACCUCUCUAUGG
RNA 2: GGGAAUGGAUCCACAUCUACGAAUUCGUACCAGUAGAGAGGUUAUACCGCUCACCGAGAUCGGAAGAGCACACGU
B24: target 1 insG 3' of 8,insA 3' of 3 (mixed)
RNA 1: CACCCGUGCAAAAAUGCAGGGGUCUAAAACUGAGCGGAUAACCUCUCUAUGG
RNA 2: GGGAAUGGAUCCACAUCUACGAAUUCGUACCAUAGAGAGGUUAUGCCGCUACACCGAGAUCGGAAGAGCACACGU
B25: target 1 C6U,U19G (mixed)
RNA 1: CACCCGUGCAAAAAUGCAGGGGUCUAAAACUGAGCGGAUAACCUCUCUAUGG
RNA 2: GGGAAUGGAUCCACAUCUACGAAUUCGUACCAGAGAGAGGUUAUCUGCUCACCGAGAUCGGAAGAGCACACGU
B26: target 1 insG 3' of 9,insG 3' of 9 (mixed)
RNA 1: CACCCGUGCAAAAAUGCAGGGGUCUAAAACUGAGCGGAUAACCUCUCUAUGG
RNA 2: GGGAAUGGAUCCACAUCUACGAAUUCGUACCAUAGAGAGGUUAGGUCCGCUCACCGAGAUCGGAAGAGCACACGU
B27: target 1 insC 3' of 17,insC 3' of 16 (mixed)
RNA 1: CACCCGUGCAAAAAUGCAGGGGUCUAAAACUGAGCGGAUAACCUCUCUAUGG
RNA 2: GGGAAUGGAUCCACAUCUACGAAUUCGUACCAUAGCACGAGGUUAUCCGCUCACCGAGAUCGGAAGAGCACACGU

This data set addresses T1, EsCas13d, nuclease-dead (Eubacterium siraeum, UniProt B0MS50, R295A;H300A;R849A;H854A).
T1 sequence: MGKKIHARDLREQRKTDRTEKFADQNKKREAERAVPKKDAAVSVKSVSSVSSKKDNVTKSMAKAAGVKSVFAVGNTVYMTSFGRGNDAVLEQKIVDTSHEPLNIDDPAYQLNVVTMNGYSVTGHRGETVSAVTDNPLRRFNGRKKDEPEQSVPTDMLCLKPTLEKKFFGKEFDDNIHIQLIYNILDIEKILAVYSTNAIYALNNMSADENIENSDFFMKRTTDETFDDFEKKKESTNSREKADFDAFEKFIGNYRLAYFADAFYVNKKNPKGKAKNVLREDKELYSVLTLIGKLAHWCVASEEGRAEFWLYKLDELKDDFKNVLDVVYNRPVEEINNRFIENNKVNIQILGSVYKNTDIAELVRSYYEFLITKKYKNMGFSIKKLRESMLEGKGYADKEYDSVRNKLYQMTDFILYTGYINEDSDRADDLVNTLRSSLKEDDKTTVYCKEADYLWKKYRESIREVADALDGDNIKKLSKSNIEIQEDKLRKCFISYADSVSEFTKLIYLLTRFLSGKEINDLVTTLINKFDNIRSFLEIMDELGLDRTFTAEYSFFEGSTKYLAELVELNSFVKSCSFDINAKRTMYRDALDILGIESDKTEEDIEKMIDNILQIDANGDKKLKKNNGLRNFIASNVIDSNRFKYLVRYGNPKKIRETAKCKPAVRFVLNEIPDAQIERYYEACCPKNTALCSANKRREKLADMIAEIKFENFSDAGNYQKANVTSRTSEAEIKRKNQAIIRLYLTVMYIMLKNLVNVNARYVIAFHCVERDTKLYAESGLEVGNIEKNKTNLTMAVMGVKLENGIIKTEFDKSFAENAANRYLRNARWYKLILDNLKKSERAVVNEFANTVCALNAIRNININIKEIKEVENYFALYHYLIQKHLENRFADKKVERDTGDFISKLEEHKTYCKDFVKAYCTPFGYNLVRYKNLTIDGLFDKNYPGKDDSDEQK
Briefly: crRNA (strand 1, pre-loaded); Mg2+; 40 mM Tris-HCl pH 7.5, 150 mM NaCl, 6 mM MgCl2, 1 mM DTT, 0.1% Tween-20, 0.2 mg/ml BSA; 25 C; 10 min per concentration, then washed. Particulars: tags: His6-TwinStrep-SUMO cleaved; N-terminal SNAP kept (SNAP-Surface 488); label: 3' end held by stalled T7 RNA polymerase.
With B1, binding was characterised by a dissociation constant (Kd) of 0.0224 ± 0.0033 µM. As for B2, the figure is 0.0079 ± 0.0008 µM. As for B3, the figure is 0.0052 ± 0.00023 µM.

As to B4, the dissociation constant Kd – broadly, a measure of binding affinity in units of concentration – amounted to 0.045 ± 0.007 µM. As for B5, the figure is 0.071 ± 0.017 µM. With B6 the figure was 0.0187 ± 0.0015 µM.

B7: the Kd worked out at 0.063 ± 0.022 µM. As for B8, the figure is 0.047 ± 0.004 µM. As for B9, the figure is 0.0263 ± 0.0026 µM; as for B10, 0.098 ± 0.016 µM; as for B11, 0.0159 ± 0.0007 µM.

In the case of B12, binding was characterised by a dissociation constant (Kd) of 0.099 ± 0.021 µM. As for B13, the figure is 0.027 ± 0.005 µM; as for B14, 0.042 ± 0.005 µM; as for B15, 0.0094 ± 0.0007 µM. As for B16, the figure is 0.0179 ± 0.0013 µM.

Consider B17, for which the Kd turned out to be 0.061 ± 0.01 µM. As for B18, the figure is 0.0331 ± 0.0016 µM; as for B19, 0.007 ± 0.0005 µM. As for B20, the Kd came out at 0.0146 ± 0.0005 µM. In turn, B21 yielded a dissociation constant (Kd) of 0.023 ± 0.0017 µM. With B22 the figure was 0.0094 ± 0.0008 µM; with B23, 0.06 ± 0.007 µM.

Molecule B24 gave a Kd of 0.0083 ± 0.0005 µM.

With B25, the Kd was found to be 0.048 ± 0.011 µM. For B26, the affinity, expressed as Kd, was 0.0162 ± 0.0009 µM.

Molecule B27 registered a Kd of 0.0273 ± 0.0016 µM. Against the preceding molecule, the Kd is about 1.7-fold higher.
